Test system: MS2 coat protein
Test: apparent KD of MS2 coat protein; designed switch direction (-1 OFF switch, 1 ON switch): -1; higher = weaker reporter binding
How it was run: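 Designed RNA switches with common flanks were transcribed on Illumina chips by stalled E. coli RNA polymerase and titrated with SNAP-549-labelled MS2 coat protein, from 0.7 or 1.5 nM doubling to 3 µM, in Tris-HCl pH 7.5 buffer with KCl, MgCl2, BSA, DTT, tRNA and Tween-20. Steps lasted 0.8–1.5 h (lowest) to 10–20 min (highest). Titrations ran without input, with 200 uM small-molecule ligand, or with an oligonucleotide input. Normalised cluster fluorescence was curve-fitted, and apparent KD is the per-design median over clusters.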

[1] = input ligand: microRNA oligo, concentration not stated
[2] = Eterna round: R95, input ligand: FMN 200 uM
[3] = Eterna round: R95, input ligand: microRNA oligo, concentration not stated
[4] = Eterna round: R95, input ligand: none

## GGGAAGGGAGGAUAUGAGGGAGAGAACAUGAGGAUCACCCAUGUGAGACCUCAGGAUCGAUCAGAAGGCCCGACCC [AK-MS2ROC-r4-exclusion5-13.1] (Eterna round: R97, puzzle: Exclusion 5)
Input ligand: FMN 200 uM
  apparent KD of MS2 coat protein: 0.824 µM
Input ligand: none
  apparent KD of MS2 coat protein: 0.0922 µM

## ACAUGUUGCGCAGGAUAUGAGACACAUGAGGAUCACCCAUGUGGUUACAUGUCUUACCAAGCGUCUCAGAAGGGUGUGAACAUG [Ex NG2 #33] (Eterna round: R96, puzzle: Exclusion NG 2)
Input ligand: FMN 200 uM
  apparent KD of MS2 coat protein: 0.0364 µM
[1]
  apparent KD of MS2 coat protein: 0.0203 µM
Input ligand: none
  apparent KD of MS2 coat protein: 0.0247 µM

## ACUAGCUUUUUGCAUUUUAGGUUUGUUGCUUCGUAUGUAACAUGAGGAUCACCCAUGUAUUACUGAUGUCGUCGUUU [JR_SV3TOV2_Sub090] (Eterna round: R96, puzzle: Sensor v3, turn-off variant 2)
Input ligand: FMN 200 uM
  apparent KD of MS2 coat protein: 0.0185 µM
[1]
  apparent KD of MS2 coat protein: 0.0155 µM
Input ligand: none
  apparent KD of MS2 coat protein: 0.0203 µM

## UUACCAUGCCGCCUAAUAGCUUUUUGCUCGUCUUAUAUUACAUGAGGAUCACCCAUGUAGAUCAUGUGGCGUGACCU [JL ViennaUCT Maridi mod 2] (puzzle: Sensor v3, turn-off variant 2)
[2]
  apparent KD of MS2 coat protein: 0.126 µM
[3]
  apparent KD of MS2 coat protein: 0.0396 µM
[4]
  apparent KD of MS2 coat protein: 0.121 µM

## UAGGAGUCAGGAUAUGCGAGAGAUGGAAGAAAGGGAAGAGAGCAGAAGGGACAUGAGGAUCACCCAUGUAAGGA [JR_Exclu4_Sub090] (puzzle: Exclusion 4)
[2]
  apparent KD of MS2 coat protein: 0.0342 µM
[3]
  apparent KD of MS2 coat protein: 0.0357 µM
[4]
  apparent KD of MS2 coat protein: 0.0362 µM

## AACCAGCGAGGAUAUGCUUGCGCUUGUUCUGGUUAUAAUCGACUUGAGGAUCACCCAAGUAGAAGGUGCUGGCG [EX2 #56] (Eterna round: R97, puzzle: Exclusion 2)
Input ligand: FMN 200 uM
  apparent KD of MS2 coat protein: 0.0287 µM
Input ligand: none
  apparent KD of MS2 coat protein: 0.0225 µM

## CCUUAUUAUCGAGGAUAUCCUAUUGAAAUUCUGGGAGAAGGCGGACUCAACAUGAGGAUCACCCAUGUGGGACGGAUGCUAGGA [salish99_exng1_r04_603] (Eterna round: R96, puzzle: Exclusion NG 1)
Input ligand: FMN 200 uM
  apparent KD of MS2 coat protein: 0.021 µM
[1]
  apparent KD of MS2 coat protein: 0.0135 µM
Input ligand: none
  apparent KD of MS2 coat protein: 0.0202 µM

## CCUCAACAGUAGGAUAUCAUAAAACUAUUGUGAUGAGAAGGACUGACAUGAGGAUCACCCAUGUUAACGUGAUA [Exclusion 6 - 5:a] (puzzle: Exclusion 6)
[3]
  apparent KD of MS2 coat protein: 0.0174 µM

## CAUACACAUGAGGAUCACCCAUGUGAGGAUAUGCGUACGUUGUCCGUAGGCGACGUGCGCAGAAGGCGCUUGGU [JL-ex1-3.18 Eli mod] (puzzle: Exclusion 1)
[3]
  apparent KD of MS2 coat protein: 0.049 µM

## UAACAUGUCUGAGGAUAUCUGCACGAUUAGUGCAGAGAAGGCAGAACAUGAGGAUCACCCAUGUAGAUCAUUAAUUAAUUAAUU [ENG1/7-B1] (Eterna round: R96, puzzle: Exclusion NG 1)
Input ligand: FMN 200 uM
  apparent KD of MS2 coat protein: 0.712 µM
[1]
  apparent KD of MS2 coat protein: 0.288 µM
Input ligand: none
  apparent KD of MS2 coat protein: 0.344 µM

## CCCGUCGAUGUAGGAUAUGCCCGGGUCUCCCGGGCAGAAGGACAUGAGGAUCACCCAUGUUCAUGAGGAUCACCCGUGAAUGGG [Double but mutated MS2] (Eterna round: R96, puzzle: Exclusion NG 1)
Input ligand: FMN 200 uM
  apparent KD of MS2 coat protein: 0.0131 µM
[1]
  apparent KD of MS2 coat protein: 0.013 µM
Input ligand: none
  apparent KD of MS2 coat protein: 0.0163 µM

## AAUGCCAGUGUCAGGAUAUCCGGAGGGAAACCUCCGGAGAAGGGACAUGAGGAUCACCCAUGUAUGUAACCUGC [AK-MS2ROC-r4-Bmoexclusion4-7] (Eterna round: R97, puzzle: Brourd's mod of Exclusion 4)
Input ligand: FMN 200 uM
  apparent KD of MS2 coat protein: 0.0352 µM
Input ligand: none
  apparent KD of MS2 coat protein: 0.0236 µM

## AUAAUGUGAGGAUAUCACGGCCCGAUGAGUACGGUAAACGAUGAGAAGGCACAUGAGGAUCACCCAUGUUCCUG [EX4 A.15] (Eterna round: R97, puzzle: Exclusion 4)
Input ligand: FMN 200 uM
  apparent KD of MS2 coat protein: 0.0478 µM
Input ligand: none
  apparent KD of MS2 coat protein: 0.0114 µM

## UCGCAGUUAGGAUAUACAUGAGGAUCACCCAUGUGGCUCCGGACCGGCAACGAAUCACGUAGAAGGGACUGCAG [Eternabot (Original) Solution 24] (Eterna round: R97, puzzle: Exclusion 3)
Input ligand: FMN 200 uM
  apparent KD of MS2 coat protein: 0.0204 µM
Input ligand: none
  apparent KD of MS2 coat protein: 0.0168 µM

## UACUGGACAGGAUAUGUUCUUGAGCACUUGAGGAUCACCCAAGUCAUCAAGAACUCAGGCACAGAAGGGUUUAUGU [salish99_ex5_r4_005] (Eterna round: R97, puzzle: Exclusion 5)
Input ligand: FMN 200 uM
  apparent KD of MS2 coat protein: 0.0702 µM
Input ligand: none
  apparent KD of MS2 coat protein: 0.0185 µM

## GCUUGUAGAGGAUAUACAAGGGCCUUAGCGGAAAACUCCGCACAUGAGGAUCACCCAUGUAGAAGGCUACCACC [Isrianqu] (puzzle: Exclusion 2)
[3]
  apparent KD of MS2 coat protein: 0.0151 µM

Reference: the supplement of paper PMC9170038
